B1: Wnt inhibitory factor 1 (Homo sapiens), Q9Y5W5 (parent)
chain: MARRSAFPAAALWLWSILLCLLALRAEAGPPQEESLYLWIDAHQARVLIGFEEDILIVSEGKMAPFTHDFRKAQQRMPAIPVNIHSMNFTWQAAGQAEYFYEFLSLRSLDKGIMADPTVNVPLLGTVPHKASVVQVGFPCLGKQDGVAAFEVDVIVMNSEGNTILQTPQNAIFFKTCQQAECPGGCRNGGFCNERRICECPDGFHGPHCEKALCTPRCMNGGLCVTPGFCICPPGFYGVNCDKANCSTTCFNGGTCFYPGKCICPPGLEGEQCEISKCPQPCRNGGKCIGKSKCKCSKGYQGDLCSKPVCEPGCGAHGTCHEPNKCQCQEGWHGRHCNKRYEASLIHALRPAGAQLRQHTPSLKKAEERRDPPESNYIW

Variants of: B1
Conditions: with wnt3a_mouse Wnt3a
In the case of MARRSAFPAAALWLWSILLCLLALRAEAGPPQEESLYLWIDAHQARVLIGFEEDILIVSEGKMAPFTHDFRKAQQRWPAIPVNIHSMNFTWQAAGQAEYFYEFLSLRSLDKGIMADPTVNVPLLGTVPHKASVVQVGFPCLGKQDGVAAFEVDVIVMNSEGNTILQTPQNAIFFKTCQQAECPGGCRNGGFCNERRICECPDGFHGPHCEKALCTPRCMNGGLCVTPGFCICPPGFYGVNCDKANCSTTCFNGGTCFYPGKCICPPGLEGEQCEISKCPQPCRNGGKCIGKSKCKCSKGYQGDLCSKPVCEPGCGAHGTCHEPNKCQCQEGWHGRHCNKRYEASLIHALRPAGAQLRQHTPSLKKAEERRDPPESNYIW [M77W], the “effect of a mutation on the interaction” value is reported as “decreasing interaction”.
